The values below come from the supplement of paper PMC10724198.

± gives the standard deviation of the averaged measurements.

The data set has as its system Saccharomyces cerevisiae. The experiment in a line: protein stability index of tFT-peptide fusion (C-terminal peptide) (PSI (0-1 scale)); higher = more stable (slower turnover). The note with it: temperature: 30 C. Here is the method:
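MPS profiling in S. cerevisiae of the yeast C-terminome library: the last 12 aa of each annotated ORF are fused to the C-terminus of a sfGFP-mCherry timer, after a GGGS linker. Cells are FACS-sorted into 8 mCherry/sfGFP bins and deep-sequenced. PSI runs from 0 (unstable) to 1 (stable); wild type and das1Δ backgrounds, two technical replicates each.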

[1] abbreviates: genetic background: das1 deletion.

Take KKLDGEVLCRVK [MRPS8 C-terminal 12 aa]: the protein stability index was 0.659 ± 0.021 under setting [1] and 0.6437 ± 0.0055 (genetic background: wild type).

Turning to KKLNRKIASIFN [ZEO1 C-terminal 12 aa], the protein stability index under setting [1] came out at 0.718 ± 0.011 and the protein stability index (genetic background: wild type) came to 0.6644 ± 0.0016.

For KKLRQPKEGETF [MMS2 C-terminal 12 aa], the protein stability index runs as follows: under setting [1], 0.7046 ± 0.00082; (genetic background: wild type) 0.6737 ± 0.00082.

On to KKRKFGKVRIKN [NEJ1 C-terminal 12 aa], for which the protein stability index runs as follows: under setting [1], 0.706 ± 0.047; (genetic background: wild type) 0.698 ± 0.0074.

Take KLAEHGAKKQKI [GCD10 C-terminal 12 aa]: the protein stability index was 0.7217 ± 0.0024 under setting [1] and 0.659 ± 0.016 (genetic background: wild type).

KLESSKNTSHEK [NFU1 C-terminal 12 aa]: the protein stability index amounted to 0.725 ± 0.0084 under setting [1] and 0.705 ± 0.0085 (genetic background: wild type).

Turning to KLGLFRHIFSRK [LRE1 C-terminal 12 aa], the protein stability index is, setting by setting: under setting [1], 0.691 ± 0.012; (genetic background: wild type) 0.704 ± 0.01.

As for KLLIRFILLVNS [YPR130C C-terminal 12 aa], the protein stability index under setting [1] was found to be 0.172 ± 0.016 and the protein stability index (genetic background: wild type) was 0.111 ± 0.0048.

In the case of KLLLNELRSFCV [PCL10 C-terminal 12 aa], the protein stability index was determined as 0.72 ± 0.009 under setting [1] and 0.694 ± 0.028 (genetic background: wild type).

In turn, KLLQIHKSKQQD [TAH11 C-terminal 12 aa] returned a protein stability index under setting [1] of 0.69 ± 0.013 and a protein stability index (genetic background: wild type) of 0.706 ± 0.012.

KLRITSQENKTE [BCK1 C-terminal 12 aa] gave a protein stability index under setting [1] of 0.68 ± 0.022 and a protein stability index (genetic background: wild type) of 0.766 ± 0.036.

On to KLRREDEIIVYA [REC8 C-terminal 12 aa], for which the protein stability index by setting is: under setting [1], 0.6145 ± 0.0033; (genetic background: wild type) 0.644 ± 0.0052.

Sequence “KLVWTLQSLCMR [YEL032C-A C-terminal 12 aa]” gave a protein stability index under setting [1] of 0.688 ± 0.0084 and a protein stability index (genetic background: wild type) of 0.681 ± 0.021.

In the case of KMIESLKSKLKE [CIN5 C-terminal 12 aa], the protein stability index by setting is: under setting [1], 0.693 ± 0.02; (genetic background: wild type) 0.686 ± 0.027.

Regarding KMKQRKLTPGDS [CMC4 C-terminal 12 aa], the protein stability index worked out at 0.691 ± 0.018 under setting [1] and 0.65 ± 0.0073 (genetic background: wild type).

Take KNEEDSTYFSNV [PMR1 C-terminal 12 aa]: the protein stability index runs as follows: under setting [1], 0.6935 ± 0.0013; (genetic background: wild type) 0.698 ± 0.027.

Take KNKTKQNQAQSW [LTO1 C-terminal 12 aa]: the protein stability index is 0.704 ± 0.012 under setting [1] and 0.679 ± 0.017 (genetic background: wild type).

For the sequence KNLWMRENEITI [HES1 C-terminal 12 aa], the protein stability index runs as follows: under setting [1], 0.711 ± 0.059; (genetic background: wild type) 0.71 ± 0.018.

For the sequence KNSDSTEKNATI [DAT1 C-terminal 12 aa], the protein stability index is 0.702 ± 0.026 under setting [1] and 0.736 ± 0.034 (genetic background: wild type).

As for KPGTIIHFSTNR [ASK1 C-terminal 12 aa], the protein stability index runs as follows: under setting [1], 0.71325 ± 0.00059; (genetic background: wild type) 0.691 ± 0.034.

As for KQEQESLGSNSK [DAD3 C-terminal 12 aa], the protein stability index was determined as 0.666 ± 0.012 under setting [1] and 0.661 ± 0.035 (genetic background: wild type).

With KQLDLKHMLEMH [MRPL44 C-terminal 12 aa], the protein stability index by setting is: under setting [1], 0.7 ± 0.0085; (genetic background: wild type) 0.6897 ± 0.0057.

On to KQPDLQERVTQE [MHF1 C-terminal 12 aa], for which the protein stability index reads like this: under setting [1], 0.666 ± 0.045; (genetic background: wild type) 0.685 ± 0.14.

KRAELASKYIYS [COG8 C-terminal 12 aa] showed a protein stability index under setting [1] of 0.713 ± 0.022 and a protein stability index (genetic background: wild type) of 0.692 ± 0.015.

On to KRGEIYETGKFF [OLE1 C-terminal 12 aa], for which the protein stability index turned out to be 0.707 ± 0.011 under setting [1] and 0.723 ± 0.011 (genetic background: wild type).

As to KTSNTKVSSRKA [ELO3 C-terminal 12 aa], the protein stability index runs as follows: under setting [1], 0.6964 ± 0.0051; (genetic background: wild type) 0.673 ± 0.03.

Consider KTSPTCHNMFDV [SDD4 C-terminal 12 aa], for which the protein stability index under setting [1] came to 0.7283 ± 0.0018 and the protein stability index (genetic background: wild type) turned out to be 0.6781 ± 0.00075.

For KVGNDHMELKKE [TFG1 C-terminal 12 aa], the protein stability index turned out to be 0.699 ± 0.013 under setting [1] and 0.671 ± 0.035 (genetic background: wild type).

On to KVHEHDAKNDSK [CMP2 C-terminal 12 aa], for which the protein stability index by setting is: under setting [1], 0.702 ± 0.032; (genetic background: wild type) 0.688 ± 0.054.

For the sequence KVTFINIEINYR [YGR064W C-terminal 12 aa], the protein stability index amounted to 0.57 ± 0.02 under setting [1] and 0.591 ± 0.03 (genetic background: wild type).

As for KWFRENDGKKAN [TSC10 C-terminal 12 aa], the protein stability index is 0.7006 ± 0.0047 under setting [1] and 0.6772 ± 0.0044 (genetic background: wild type).

In the case of KWIEYVEEFQNW [FRE5 C-terminal 12 aa], the protein stability index runs as follows: under setting [1], 0.7168 ± 0.00097; (genetic background: wild type) 0.73 ± 0.016.

LAKGGADVKPKK [RDL2 C-terminal 12 aa]: the protein stability index was 0.7071 ± 0.0016 under setting [1] and 0.708 ± 0.033 (genetic background: wild type).

LASALKELQDAA [YHR112C C-terminal 12 aa]: the protein stability index turned out to be 0.691 ± 0.0097 under setting [1] and 0.682 ± 0.031 (genetic background: wild type).

As for “LASVRLSWYSII [YGR204C-A C-terminal 12 aa]”, the protein stability index is, setting by setting: under setting [1], 0.71 ± 0.021; (genetic background: wild type) 0.277 ± 0.014.

LDLVARTATLSN [NUP84 C-terminal 12 aa]: the protein stability index was found to be 0.695 ± 0.014 under setting [1] and 0.713 ± 0.026 (genetic background: wild type).

Regarding LDNILADLELDV [YIL001W C-terminal 12 aa], the protein stability index was determined as 0.72202 ± 0.00032 under setting [1] and 0.684 ± 0.046 (genetic background: wild type).

Regarding LDYLSSYINRRI [FLP1 C-terminal 12 aa], the protein stability index by setting is: under setting [1], 0.7058 ± 0.00092; (genetic background: wild type) 0.6948 ± 0.0047.

On to LEDEDVVTILKK [RBG1 C-terminal 12 aa], for which the protein stability index by setting is: under setting [1], 0.705 ± 0.021; (genetic background: wild type) 0.707 ± 0.0083.

For LEKQEDYIDNLV [RPC37 C-terminal 12 aa], the protein stability index is, setting by setting: under setting [1], 0.697 ± 0.02; (genetic background: wild type) 0.73 ± 0.056.

In the case of LFCNYITETVEN [ASH1 C-terminal 12 aa], the protein stability index turned out to be 0.694 ± 0.0018 under setting [1] and 0.645 ± 0.095 (genetic background: wild type).

Regarding “LFSNVLSLSSNI [YGL007C-A C-terminal 12 aa]”, the protein stability index amounted to 0.7296 ± 0.0024 under setting [1] and 0.695 ± 0.016 (genetic background: wild type).

With LIGGVGLSIWKK [RTT10 C-terminal 12 aa], the protein stability index reads like this: under setting [1], 0.7069 ± 0.0038; (genetic background: wild type) 0.668 ± 0.032.

The sequence LIHASSVEQATA [MRPL4 C-terminal 12 aa] had a protein stability index under setting [1] of 0.68 ± 0.016 and a protein stability index (genetic background: wild type) of 0.6986 ± 0.0057.

Take LILQRLKTSLKI [GFD1 C-terminal 12 aa]: the protein stability index came to 0.617 ± 0.024 under setting [1] and 0.668 ± 0.03 (genetic background: wild type).

As for LIWLTIIYQALT [IRC18 C-terminal 12 aa], the protein stability index reads like this: under setting [1], 0.249 ± 0.015; (genetic background: wild type) 0.269 ± 0.0048.

Turning to LKEFTQFCKDNS [MIX23 C-terminal 12 aa], the protein stability index reads like this: under setting [1], 0.724 ± 0.023; (genetic background: wild type) 0.721 ± 0.025.

On to LKFEPTQEIVES [ITR2 C-terminal 12 aa], for which the protein stability index was determined as 0.7054 ± 0.002 under setting [1] and 0.677 ± 0.032 (genetic background: wild type).

In the case of LKFLEEKFPHDK [AIM17 C-terminal 12 aa], the protein stability index reads like this: under setting [1], 0.708 ± 0.02; (genetic background: wild type) 0.691 ± 0.03.

As to “LKIKVHIYRMKR [YHL015W-A C-terminal 12 aa]”, the protein stability index runs as follows: under setting [1], 0.597 ± 0.021; (genetic background: wild type) 0.5995 ± 0.0016.
